# Data: patent US20220363781A1 (SICHUAN KELUN BIOTECH BIOPHARMACEUTICAL, published 2022)
# T1: monkey TSLP-His (cynomolgus monkey, Macaca fascicularis) (cynomolgus monkey (Macaca fascicularis), UniProt A0A7N9CAT7 29-159)
# T1 construct: Whole entry XP_005557555.1 is named; also called cTSLP
# T1 sequence: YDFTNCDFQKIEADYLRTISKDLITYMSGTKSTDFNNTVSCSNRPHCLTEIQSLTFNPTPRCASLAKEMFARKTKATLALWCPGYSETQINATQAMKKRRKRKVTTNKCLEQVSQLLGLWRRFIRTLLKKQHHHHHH
# B1: chimeric antibody 27C2B6 (antibody, V domains shown)
# VH: QVQLQESGPGLVKPSGTLSLTCAVSGDSISNYNWWSWVRQPPGKGLEWIGEIYHSGRTNYNPSLKSRVTLSVDTSKNQFSLRLSSVTAADTAVYYCARDAPSDYGDYGFFDHWGQGTLVIVSS
# VL: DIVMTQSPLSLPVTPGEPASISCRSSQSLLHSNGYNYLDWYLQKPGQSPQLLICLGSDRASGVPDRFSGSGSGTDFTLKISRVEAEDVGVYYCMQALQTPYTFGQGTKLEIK
# notes: Fully human variable regions with rat constant region (rat Fc)
# B2: recombinant fully human antibody 27C2B6-hIgG (antibody, V domains shown)
# VH: QVQLQESGPGLVKPSGTLSLTCAVSGDSISNYNWWSWVRQPPGKGLEWIGEIYHSGRTNYNPSLKSRVTLSVDTSKNQFSLRLSSVTAADTAVYYCARDAPSDYGDYGFFDHWGQGTLVIVSS
# VL: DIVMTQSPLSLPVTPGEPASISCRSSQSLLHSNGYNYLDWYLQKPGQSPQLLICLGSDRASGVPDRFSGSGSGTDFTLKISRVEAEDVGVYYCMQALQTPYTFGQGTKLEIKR
# B3: recombinant fully human antibody 90H3H11-hIgG (antibody, V domains shown)
# VH: QVQLVESGGGVVQPGRSLRLSCAASGFTISNHDIHWVRQAPGKGLEWVTLIWYDGSNQYYADSVKGRFTISRDNSKNTVYLQMNSLRAEDTAVYYCARDDYADYVYFHHWGQGTLVTVSS
# VL: DIQMTQSPSSLSASVGDRVTITCRASQNINSYLNWYRQKPGKAPELLIYAASSLQSGVPSRFSGSGSGTDFTLTISSLQPEDFATYYCQQSYSTPYTFGQGTELEIKR
# B4: chimeric antibody 90H3H11 (antibody, V domains shown)
# VH: QVQLVESGGGVVQPGRSLRLSCAASGFTISNHDIHWVRQAPGKGLEWVTLIWYDGSNQYYADSVKGRFTISRDNSKNTVYLQMNSLRAEDTAVYYCARDDYADYVYFHHWGQGTLVTVSS
# VL: DIQMTQSPSSLSASVGDRVTITCRASQNINSYLNWYRQKPGKAPELLIYAASSLQSGVPSRFSGSGSGTDFTLTISSLQPEDFATYYCQQSYSTPYTFGQGTELEIK
# notes: as for B1
# B5: chimeric antibody 25A5C5 (antibody, V domains shown)
# VH: EVQLVESGGGLVQPGGSLRLSCAASRFTFSRYWMNWVRQAPGKGLEWVANIKQDGNEKYYVDSVKGRFTISRDNAKNSLYLQMNSLRAEDTAVYYCARDRVVGAPDTFDIWGQGTMVTVSS
# VL: not shown
# notes: From hybridoma of H2L2 mice: fully human variable regions with rat constant region (rat Fc)
# B6: recombinant fully human antibody 25A5C5-hIgG (antibody, V domains shown)
# VH: EVQLVESGGGLVQPGGSLRLSCAASRFTFSRYWMNWVRQAPGKGLEWVANIKQDGNEKYYVDSVKGRFTISRDNAKNSLYLQMNSLRAEDTAVYYCARDRVVGAPDTFDIWGQGTMVTVSS
# VL: not shown
# B7: chimeric antibody 43B1A8 (antibody, V domains shown)
# VH: QMQLVESGGGAVQPGRSLRLSCAASGFTFRSYDMHWVRQAPGKGLEWVAVIWYDGSNENYADSVKGRFTTSRDNSKNTLFLQMNSLRAEDTAVYYCARSPLWYGEPDDAFDIWGQGTLVTVSS
# VL: EIVMTQSPATLSVSPGERATLSCRASQSVSSNLAWYQQKPGQAPRLLISGASTRATGIPARFSGSGSGTDFTLTISSLRSEDFAVYYCQHYNNWPLTFGGGTKVEIK
# notes: as for B1
# B8: chimeric antibody 37C2D10 (antibody, V domains shown)
# VH: QVQLQESGPGLVKPSGTLSLTCAVSGDSISSDNWWNWVRQPPGKGLQWIGEIFHSGRTNYNPSLKSRVTISVDMSKNQFSLKLSSVTAADTAVYFCARDAPNDYGDYGFFDYWGQGILVTVSS
# VL: DIVMTQSPLSLPVTPGEPASISCRSSQSLLHSNEYNYLDWYLQKPGQSPQLLIYLGSDRASGVPDRFSGSGSGTDFTLKISRVEAEDVGIYYCMQALQTPYTFGQGTKLEIK
# notes: as for B1
# B9: recombinant fully human antibody 37C2D10-hIgG (antibody, V domains shown)
# VH: QVQLQESGPGLVKPSGTLSLTCAVSGDSISSDNWWNWVRQPPGKGLQWIGEIFHSGRTNYNPSLKSRVTISVDMSKNQFSLKLSSVTAADTAVYFCARDAPNDYGDYGFFDYWGQGILVTVSS
# VL: DIVMTQSPLSLPVTPGEPASISCRSSQSLLHSNEYNYLDWYLQKPGQSPQLLIYLGSDRASGVPDRFSGSGSGTDFTLKISRVEAEDVGIYYCMQALQTPYTFGQGTKLEIKR
# What was measured:
# human TSLP-His [1] = biological target: T2, human TSLP-His (human, UniProt Q969D9 29-159); assay: competitive ELISA, hIL7Rα-hTSLPR-hFc coated, hTSLP-His plus titrated antibody, anti-His-HRP
# T2 construct: Whole entry NP_149024.1 is named; Expressed in E. coli or HEK293F; also called hTSLP; hTSLP-His
# Procedure: (§1) The soluble hIL7Rα-hTSLPR-hFc protein was diluted in 1×CBS coating buffer, then added to 96-well plates, and incubated overnight at CC. The 96-well plate was washed with PBST and blocked with a blocking solution (PBS+2% BSA) at 37° C. for 2 hours. […] The 96-well plates were added with mouse anti-His-HRP, and incubated in an incubator at 37° C. for 1 hour, then washed and read OD at 450 nm.
# Competitive ELISA was applied to assay the activity of chimeric antibodies of blocking the binding of chimeric receptor hIL7Rα-hTSLPR-hFc to the antigen.
# [2] = biological target: T1, monkey TSLP-His (cynomolgus monkey, …); assay: ELISA, monkey TSLP-His coated at 1 µg/mL, hybridoma supernatant, anti-rat IgG-HRP
# Procedure: The monkey TSLP-His protein was diluted to 1 μg/mL in CBS coating buffer, then added to 96-well plates, and incubated overnight at 4° C. The 96-well plates were washed with PBST and blocked with a blocking solution (PBS+2% BSA) at 37° C. for 2 hours. The hybridomas supernatant, or the same volume of blocking solution were added to plates, and incubated in an incubator at 37° C. for 2 hours. The 96-well plates were added with goat anti-rat IgG-HRP, and incubated in an incubator at 37° C. for 1 hour, then washed and read OD at 450 nm.
# human TSLP-His [3] = biological target: T2, human TSLP-His; assay: cell-based or functional assay
# human TSLP-His [4] = biological target: T2, human TSLP-His; assay: ELISA, human TSLP-His coated at 1 µg/mL, hybridoma supernatant, anti-rat IgG-HRP
# Procedure: The 96-well plates were washed with PBST and blocked with a blocking solution (PBS+2% BSA) at 37° C. for 2 hours. The hybridomas supernatant, or the same volume of blocking solution were added to plates, and incubated in an incubator at 37° C. for 2 hours. The 96-well plates were added with goat anti-rat IgG-HRP, and incubated in an incubator at 37° C. for 1 hour, then washed and read OD at 450 nm.
# [5] = biological target: T1, monkey TSLP-His (cynomolgus monkey, …); assay: ELISA, monkey TSLP-His coated, antibody titrated, anti-rat Fc-HRP
# Procedure: (§2) The specific method was briefed as follows: coating human or monkey TSLP-His antigen into 96-well plates, after overnight at 4° C., adding antibodies diluted with different concentration gradients, respectively, after incubating for 2 hours, adding goat anti-rat Fc-HRP secondary antibody, and after incubating for 1 hour, reading the absorption value at 450 nm wavelength by microplate reader.
# human TSLP-His [6] = biological target: T2, human TSLP-His; assay: competitive ELISA, hIL7Rα-hTSLPR-hFc coated, hTSLP-His plus hybridoma supernatant, anti-His-HRP
# Procedure: as §1
# human TSLP-His [7] = biological target: T2, human TSLP-His; assay: ELISA, human TSLP-His coated, antibody titrated, anti-rat Fc-HRP
# Procedure: as §2
# human TSLP-His [8] = biological target: T2, human TSLP-His; assay: ELISA, human TSLP-His coated, antibody titrated, anti-human Fc-HRP
# [9] = biological target: T1, monkey TSLP-His (cynomolgus monkey, …); assay: ELISA, monkey TSLP-His coated, antibody titrated, anti-human Fc-HRP
# human TSLP-His [10] = biological target: T2, human TSLP-His; assay: cell-based or functional assay; remark: listed apart in the source
# human TSLP-His [11] = biological target: T2, human TSLP-His; assay: BLI (Fortebio), antibody on ProA sensor, human TSLP 1.5625-100 nM, 1:1 model
# Source text: (§3) The dynamic affinity of anti-TSLP fully human chimeric antibody for TSLP was detected by Fortebio, a commonly used dynamic affinity detection device. […] Date analysis 11.0 version (Pall) with 1:1 model was used to determine the association rate constant (Ka) and the dissociation rate constant (Kd), which were then used to calculate the dissociation equilibrium constant (KD).
# human TSLP-His [12] = biological target: T2, human TSLP-His; assay: cell-based or functional assay; remark: listed apart in the source
# [13] = biological target: T1, monkey TSLP-His (cynomolgus monkey, …); assay: BLI (Fortebio), antibody on ProA sensor, monkey TSLP 1.5625-100 nM, 1:1 model
# Source text: as §3
binder,measurement,setting,value
B1,IC50,human TSLP-His [1],770 pM
same,cTSLP binding (OD450),[2],1.11 OD450
same,"EC50, blocking human TSLP-induced proliferation of Ba/F3-hTSLPR-hIL7Rα cells (CCK8)",human TSLP-His [3],1220 pM
same,hTSLP binding (OD450),human TSLP-His [4],1.4 OD450
same,EC50,[5],216 pM
same,hTSLP/hIL7Rα-hTSLPR-hFc inhibition rate (%),human TSLP-His [6],69.8%
same,EC50,human TSLP-His [7],221 pM
B2,EC50,human TSLP-His [8],1620 pM
same,EC50,[9],180 pM
same,"hTSLP EC50, inhibition of the proliferation of Ba/F3-hTSLPR-hIL7Rα cells",human TSLP-His [10],64 pM
B3,Kd,human TSLP-His [11],604 pM
same,EC50,human TSLP-His [8],1360 pM
same,"EC50, inhibition of human TSLP-induced PBMC secretion of TARC",human TSLP-His [12],420 pM
same,"hTSLP EC50, inhibition of the proliferation of Ba/F3-hTSLPR-hIL7Rα cells",human TSLP-His [10],50 pM
B4,IC50,human TSLP-His [1],1650 pM
same,"EC50, blocking human TSLP-induced proliferation of Ba/F3-hTSLPR-hIL7Rα cells (CCK8)",human TSLP-His [3],250 pM
same,hTSLP binding (OD450),human TSLP-His [4],0.7 OD450
same,hTSLP/hIL7Rα-hTSLPR-hFc inhibition rate (%),human TSLP-His [6],87%
same,EC50,human TSLP-His [7],139 pM
B5,IC50,human TSLP-His [1],890 pM
same,"EC50, blocking human TSLP-induced proliferation of Ba/F3-hTSLPR-hIL7Rα cells (CCK8)",human TSLP-His [3],110 pM
same,hTSLP binding (OD450),human TSLP-His [4],2.4 OD450
same,hTSLP/hIL7Rα-hTSLPR-hFc inhibition rate (%),human TSLP-His [6],95.9%
same,EC50,human TSLP-His [7],208 pM
B6,Kd,human TSLP-His [11],558 pM
same,EC50,human TSLP-His [8],1450 pM
same,binding result,[9],no binding
same,"hTSLP EC50, inhibition of the proliferation of Ba/F3-hTSLPR-hIL7Rα cells",human TSLP-His [10],44 pM
B7,IC50,human TSLP-His [1],1330 pM
same,cTSLP binding (OD450),[2],1.11 OD450
same,"EC50, blocking human TSLP-induced proliferation of Ba/F3-hTSLPR-hIL7Rα cells (CCK8)",human TSLP-His [3],100 pM
same,hTSLP binding (OD450),human TSLP-His [4],1.92 OD450
same,EC50,[5],568 pM
same,hTSLP/hIL7Rα-hTSLPR-hFc inhibition rate (%),human TSLP-His [6],80.7%
same,EC50,human TSLP-His [7],115 pM
B8,IC50,human TSLP-His [1],510 pM
same,cTSLP binding (OD450),[2],1.12 OD450
same,"EC50, blocking human TSLP-induced proliferation of Ba/F3-hTSLPR-hIL7Rα cells (CCK8)",human TSLP-His [3],280 pM
same,hTSLP binding (OD450),human TSLP-His [4],1.1 OD450
same,EC50,[5],495 pM
same,hTSLP/hIL7Rα-hTSLPR-hFc inhibition rate (%),human TSLP-His [6],81%
same,EC50,human TSLP-His [7],300 pM
B9,Kd,human TSLP-His [11],1760 pM
same,EC50,human TSLP-His [8],900 pM
same,EC50,[9],170 pM
same,"hTSLP EC50, inhibition of the proliferation of Ba/F3-hTSLPR-hIL7Rα cells",human TSLP-His [10],60 pM
same,Kd,[13],20100 pM
